The values below come from patent publication US20120058126A1.

Test [1] addresses human sR3-AP (Ig domains 1-3) P219L (human) (UniProt P05187). The test is described as follows: sR3-AP binding assay: conditioned medium on VEGF-CΔNΔC-coated plates, AP chemiluminescence, triplicate.
Test [2] has as its target human sR3-AP (Ig domains 1-3) V175A (human) (UniProt P05187). Described as above.

Sequence of recombinant mature human VEGF-CΔNΔC (P49767 112-215 limits assumed, stated change not applied): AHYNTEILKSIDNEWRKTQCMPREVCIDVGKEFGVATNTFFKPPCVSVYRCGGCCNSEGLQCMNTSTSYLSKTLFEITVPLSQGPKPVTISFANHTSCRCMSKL
Sequence of human sR3-AP (Ig domains 1-3) V175A (human) (P05187 other isoform, or with tags, fused parts or gaps V175A V175A): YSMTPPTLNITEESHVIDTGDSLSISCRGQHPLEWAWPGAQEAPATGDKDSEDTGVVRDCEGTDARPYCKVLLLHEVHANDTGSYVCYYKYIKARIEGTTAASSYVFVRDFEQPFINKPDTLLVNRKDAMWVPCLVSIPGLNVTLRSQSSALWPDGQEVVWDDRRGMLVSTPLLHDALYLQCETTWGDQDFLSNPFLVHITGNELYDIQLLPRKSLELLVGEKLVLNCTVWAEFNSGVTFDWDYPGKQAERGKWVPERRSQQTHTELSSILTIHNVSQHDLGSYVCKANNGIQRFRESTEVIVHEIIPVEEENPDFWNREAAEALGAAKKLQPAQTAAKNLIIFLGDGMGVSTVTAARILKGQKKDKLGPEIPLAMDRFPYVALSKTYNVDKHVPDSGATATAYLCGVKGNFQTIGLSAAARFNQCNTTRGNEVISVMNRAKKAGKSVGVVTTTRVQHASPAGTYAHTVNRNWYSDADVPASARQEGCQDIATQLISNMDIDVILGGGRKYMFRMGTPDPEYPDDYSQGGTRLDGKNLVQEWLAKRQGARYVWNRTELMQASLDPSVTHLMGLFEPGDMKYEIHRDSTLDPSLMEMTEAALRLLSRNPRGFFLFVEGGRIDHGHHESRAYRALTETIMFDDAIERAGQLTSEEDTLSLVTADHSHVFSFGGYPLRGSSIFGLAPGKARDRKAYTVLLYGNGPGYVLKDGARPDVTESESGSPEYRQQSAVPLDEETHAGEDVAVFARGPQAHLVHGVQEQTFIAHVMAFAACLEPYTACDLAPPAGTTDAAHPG
Sequence of human sR3-AP (Ig domains 1-3) P219L (human) (P05187 other isoform, or with tags, fused parts or gaps P219L P219L): as the sequence (P05187 other isoform, or with tags, fused parts or gaps V175A V175A) above, with A151V, P195L counted along it

Take “recombinant mature human VEGF-CΔNΔC (from UniProt P49767 112-215) (ligand)”: the loss of binding against wild-type human sR3-AP in test [1] is 75%; in test [2], 50%.
